± gives the uncertainty stated by the source.
Assay: protein stability index of a GFP-peptide fusion (yeast GPS) (PSI 1-4); higher = more stable; sorted into four equal gates, so the index is relative within each strain
How it was run: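 Peptides tiling yeast proteins in 17-residue segments were fused downstream of GFP, with Cherry expressed from the same plasmid. As a pooled library in yeast, mid-log cultures grown in leucine-free medium were sorted into four equal gates by GFP/Cherry fluorescence ratio. Gate plasmids were PCR-amplified and Illumina-sequenced, and barcodes linked reads to strains. Each peptide received a protein stability index equal to the sum of each gate's read frequency times its gate number.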

Row | Sequence | protein stability index (doa10∆) | protein stability index (pdr5∆) | protein stability index (san1∆) | protein stability index (ubr1∆)
1 | DLLILTRSIKEKWLLNQ [SRB6] | 1.12 ± 0.1 | 1.35 ± 0.19 | 1.32 ± 0.2 | 1.24 ± 0.17
2 | TQVNILKENNAILQKSL [YIL149C/MLP2] | 2.44 ± 0.06 | 2.55 ± 0.062 | 2.63 ± 0.076 | 2.65 ± 0.059
3 | QERKDFLKKVMDTIQDK [ECM29] | 3.12 ± 0.13 | 3.41 ± 0.12 | 3.35 ± 0.11 | 3.17 ± 0.072
4 | NPASATDNMSGRGLWNP [YJL039C/NUP192] | 2.71 ± 0.079 | 3.1 ± 0.082 | 2.8 ± 0.076 | 3.16 ± 0.075
5 | MANIPERIINVGVIGPL [SNU114] | 2.18 ± 0.28 | 2.79 ± 0.16 | – | 3.07 ± 0.077
6 | LSQNESTRASTVPNLPT [ISW2] | 2.17 ± 0.056 | 2.5 ± 0.063 | 2.46 ± 0.045 | 2.6 ± 0.048
7 | GSKQILKTEAANVLDPS [BRR2] | 3.11 ± 0.075 | 2.99 ± 0.076 | 3 ± 0.056 | 3.19 ± 0.067
8 | YDNEKTAELIKELKEKE [PUP2] | 3.27 ± 0.066 | 3.34 ± 0.087 | 3.44 ± 0.094 | 3.31 ± 0.064
9 | ARTAANSIYCPTQTVAE [RPN6] | 2.63 ± 0.062 | 1.76 ± 0.067 | 1.42 ± 0.11 | 2.04 ± 0.045
10 | NQLSQTNKLLFKRVSQT [NUT1] | 1.92 ± 0.042 | 1.36 ± 0.037 | 1.37 ± 0.083 | 1.38 ± 0.035
11 | GYENGMLAQWDLRSPEC [RPN14] | 3.15 ± 0.29 | 3.6 ± 0.2 | – | 3.65 ± 0.16
12 | IVMVWLKENTYVMERPK [YDL116W/NUP84] | 1.46 ± 0.064 | 1.81 ± 0.06 | 1.43 ± 0.14 | 1.4 ± 0.056
13 | MEDIEKIKPYVRSFSKA [LRP1] | 2.64 ± 0.062 | 3 ± 0.05 | 2.51 ± 0.069 | 2.74 ± 0.038
14 | LKIFKIFCIDLEVFHHF [SRB8] | 1.57 ± 0.069 | 2.23 ± 0.1 | 1.67 ± 0.1 | 2.53 ± 0.092
15 | FHIGYFKATIQILQGIC [RPO31] | 1.39 ± 0.042 | 1.48 ± 0.035 | 1.72 ± 0.062 | 1.54 ± 0.036
16 | ELYEVDVLKVNTLVRPN [RPL25] | 2.52 ± 0.095 | 2.67 ± 0.099 | 2.72 ± 0.12 | 2.87 ± 0.088
17 | SYDVENVNSRNQLVEPN [SRB5] | 3.21 ± 0.12 | 3.26 ± 0.14 | 3.42 ± 0.13 | 3.34 ± 0.12
18 | EEKVIERAAQKLRLDQL [ISW2] | 2.81 ± 0.15 | 2.89 ± 0.14 | 2.87 ± 0.12 | 2.68 ± 0.11
19 | GNLSGKRVDFSGRTVIS [RPO31] | 3 ± 0.073 | 3.01 ± 0.081 | 3.36 ± 0.073 | 3.17 ± 0.089
20 | KLKNENTDLKDIIQGNP [PCI8] | 2.82 ± 0.051 | 3.21 ± 0.084 | 2.75 ± 0.14 | 3.25 ± 0.089
21 | GTIDKLQLELTIEDIAV [RPO31] | 2.41 ± 0.064 | 2.79 ± 0.057 | 2.3 ± 0.053 | 2.54 ± 0.046
22 | NTSLISLFTYFREAIVA [PRP8] | 1.3 ± 0.049 | 1.49 ± 0.054 | 1.34 ± 0.1 | 1.44 ± 0.049
23 | EDARRNPNPSSQRAQVV [RPC37] | 3.18 ± 0.073 | 3.26 ± 0.064 | 3.02 ± 0.064 | 3.38 ± 0.054
24 | SFDEWFNTPFANTGGQD [SNF2] | 2.8 ± 0.099 | 2.99 ± 0.12 | 3.41 ± 0.095 | 3.15 ± 0.15
25 | RFSPDEDFEHNNLSSMN [MCD1] | 2.69 ± 0.094 | 3.35 ± 0.18 | 3.09 ± 0.091 | 3.18 ± 0.074
26 | IKLDRWLMEGSYQKAWD [RPN12] | 2.72 ± 0.11 | 2.8 ± 0.098 | 2.9 ± 0.11 | 2.68 ± 0.11
27 | DLCSLKPYVDRFAFSVI [DIS3] | 1.93 ± 0.05 | 1.87 ± 0.052 | 1.93 ± 0.065 | 2.27 ± 0.04

Row | Sequence | protein stability index (doa10∆) | protein stability index (pdr5∆) | protein stability index (san1∆) | protein stability index (ubr1∆)
28 | DLEHKEDCVEEFFHLQH [QCR6] | 2.77 ± 0.1 | 2.75 ± 0.11 | 2.69 ± 0.14 | 3.37 ± 0.1
29 | AMIALSMILIQQTEKLN [RPN2] | 1.32 ± 0.077 | 1.35 ± 0.066 | 1.45 ± 0.14 | 1.6 ± 0.064
30 | ASSKAVTRGISVLKDSD [PRE1] | 2.4 ± 0.058 | 2.76 ± 0.05 | 2.89 ± 0.051 | 2.67 ± 0.052
31 | VSKPSLLHETNDSFKGL [PRP8] | – | 2.74 ± 0.13 | – | 2.99 ± 0.097
32 | RPLQKIMLLQLELGSCF [SIN4] | 1.41 ± 0.058 | 1.54 ± 0.065 | 1.79 ± 0.1 | 1.42 ± 0.061
33 | DFDESLKYLDDLKAQFQ [RPN9] | 3.02 ± 0.15 | 3.17 ± 0.075 | 3.12 ± 0.098 | 3.11 ± 0.081
34 | ENVEKKEAALKTMIKTI [SMC2] | 1.93 ± 0.058 | 2.29 ± 0.077 | 1.73 ± 0.09 | 2.14 ± 0.039
35 | LDDFGEEELFEVTKEED [RRP43] | 2.92 ± 0.11 | 2.54 ± 0.15 | 2.36 ± 0.12 | –
36 | VSGNNASDEPSRKKNRR [SSN3] | 2.67 ± 0.1 | 3.01 ± 0.11 | 2.78 ± 0.14 | 2.91 ± 0.096
37 | SINATALAFGYVKSLHK [SIN4] | 3.51 ± 0.21 | 2.92 ± 0.12 | 3.1 ± 0.22 | 3.08 ± 0.08
38 | TNTFGSNSAGTSLFGSS [YJL041W/NSP1] | 3.1 ± 0.083 | 2.84 ± 0.09 | 3.16 ± 0.082 | 3.15 ± 0.058
39 | MKFQESLKKVDEIKAQR [SMC4] | – | 3.57 ± 0.26 | 3.34 ± 0.17 | 3.57 ± 0.082
40 | GVYKRDNRTKSTTIKNI [SMC4] | 1.62 ± 0.06 | 1.54 ± 0.062 | 1.33 ± 0.14 | 1.23 ± 0.075
41 | RQILFKYPMYMQLEEEL [MED6] | 2.18 ± 0.064 | 2.25 ± 0.069 | 2.37 ± 0.12 | 1.72 ± 0.062
42 | QTQAIAQQQQLSNYPQQ [YGR119C/NUP57] | 2.79 ± 0.058 | 3.15 ± 0.062 | 2.58 ± 0.048 | 2.97 ± 0.046
43 | GMIVISMENYHLLIKII [SRB8] | 1.96 ± 0.043 | 2.04 ± 0.044 | 2.71 ± 0.048 | 2.66 ± 0.045
44 | HVKVNDKKEMTIYNNIR [SIR3] | 3.04 ± 0.052 | 2.91 ± 0.062 | 2.87 ± 0.04 | 3.228 ± 0.032
45 | WSEITESMSYLPDPILK [MCD1] | – | 2.97 ± 0.18 | 2.92 ± 0.23 | 2.64 ± 0.1
46 | QELCYPDENHDNTSHDE [BRN1] | 3.23 ± 0.073 | 3.27 ± 0.061 | 2.98 ± 0.061 | 3.35 ± 0.056
47 | IEPLEINIQSFKDVEHI [BRR2] | 2.5 ± 0.069 | 2.31 ± 0.062 | 2.12 ± 0.074 | 2.67 ± 0.068
48 | VRRLEAQRNALNDKVRF [RPT6] | 2.63 ± 0.1 | 2.96 ± 0.089 | 2.77 ± 0.13 | 2.7 ± 0.045
49 | QKKILSIRLKVPPTIAQ [RPL8A] | 1.53 ± 0.037 | 1.66 ± 0.037 | 1.5 ± 0.06 | 1.69 ± 0.029
50 | EAIRDPKNSSSPVQIAF [SSN8] | 2.55 ± 0.17 | 2.96 ± 0.15 | 1.92 ± 0.22 | 2.98 ± 0.12
51 | KTEDPKGGIIASVGDIL [YML031W/NDC1] | 2.57 ± 0.067 | 2.62 ± 0.051 | 2.43 ± 0.046 | 2.12 ± 0.04
52 | KNSDVWFLDHNYIENMN [RPN8] | 2.68 ± 0.1 | 2.44 ± 0.094 | 2.57 ± 0.11 | 2.41 ± 0.057
53 | EEKKKEHEEKEKERETN [RPN2] | 3.3 ± 0.23 | 3.37 ± 0.1 | 3.38 ± 0.15 | 3.44 ± 0.24
54 | KIRCFRYISTLTLYLFQ [IRR1] | 1.69 ± 0.073 | 1.47 ± 0.077 | 1.64 ± 0.15 | 1.51 ± 0.14
